± gives the uncertainty stated by the source.
Assay: amyloid nucleation score (Sup35N fusion, yeast selection) (log enrichment); library NNK2; higher = more nucleation; inactive = no reads after selection
In short: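 Libraries of peptides of 20 random codons fused to Sup35N were expressed in psi-negative yeast and induced 24 hours with 100 μM copper sulfate. Selection was 7 days at 30°C on medium lacking adenine and uracil, and plasmid inserts were Illumina-sequenced before and after selection. Nucleation score is the DiMSum log enrichment of output over input reads, centred on the mode score of non-aggregating sequences, and sequences with under 100 input reads were left out.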

| Substance | amyloid nucleation score |
| --- | --- |
| NSVFAGRRTRTSFP | 0.227 ± 0.62 |
| MRCWFTFVWCVIYY | inactive |
| EFQGVS | 0.343 ± 0.64 |
| ELCTKAINVMN | 0.433 ± 0.48 |
| RFFSMVTR | 0.025 ± 0.33 |
| GDGSRS | 0.813 ± 0.23 |
| WGHLFRSPSRSSRFYRVLPA | -0.159 ± 1.1 |
| TFHRS | 1.05 ± 0.29 |
| NWMHC | 1.39 ± 0.42 |
| VQILSHFSADCKDDSVDQES | -1.06 ± 1.1 |
| SLLESLVAMLVGVQRVVDSR | 1.03 ± 0.51 |
| GIGYRNVISSIMGFRFTGIR | 0.109 ± 0.53 |
| FGFGRRKSKKWLVDLDPRR | inactive |
| GDSNG | -0.532 ± 0.29 |
| AINWYYMHISMLECPAKNGS | -0.876 ± 0.76 |
| TYSVGSSYCLRRSFGAGFFS | 0.728 ± 0.25 |
| VPELVSYFHLP | 0.863 ± 0.43 |
| RYFLYFCYVGPNSAMFLSR | -0.27 ± 1.1 |
| FGYVVVKRPSSMLLRASRDG | -0.619 ± 1 |
| LFSKDVSRTLGPACFICEGT | 2.78 ± 0.072 |
| MYSLSAAFT | inactive |
| IVKFDVRVMCADLIGSHGQW | 7.02 ± 0.085 |
| GAVRVYNYNYQEVKTLLLVE | -0.425 ± 0.32 |
| RVTRG | inactive |
| VLNCNRYFRCSANNIEASES | 0.27 ± 0.56 |
| LFWFIYGSYRTVRACGRYSN | 0.516 ± 0.64 |

| Substance | amyloid nucleation score |
| --- | --- |
| RFAFVRNKTWEQLPMI | inactive |
| KFKVHQMQDVLSWVGYHDGS | 4.13 ± 0.044 |
| TFDLSWLVHVPDNCCHLLCF | -0.183 ± 0.28 |
| WVELVCPYSTYLLSFIASLS | 0.278 ± 0.54 |
| MSMFVGTYNSFFRQSLFSAF | -1.7 ± 0.78 |
| KGIDKPIEGPSSKHLRFNCY | 0.071 ± 0.65 |
| EFQIMFVFHWT | inactive |
| FPFKCTSQDSFFFNFKWSRR | 3.25 ± 0.17 |
| ESQWYVIDGAPFPTSGVLMS | 0.013 ± 0.35 |
| IFSTGNVKGNLTR | -0.491 ± 0.22 |
| GVIWVCIRCDHGGTAMRLLW | 1.25 ± 0.45 |
| SVGQMQLT | 0.707 ± 0.35 |
| ERPWRRQRCAFKVSWVGADL | 0.632 ± 0.19 |
| SSAFFSFNWADKWCMLMCLV | -1.41 ± 1.1 |
| YMYLTCSLGSVCRFLSEHMW | -0.605 ± 0.36 |
| PVLTYFKLQLMM | 2.23 ± 0.066 |
| IVAGFNSKWLSTDFNRTENR | -0.517 ± 0.78 |
| SAGEKWWKGMHYARGRPVRR | 0.726 ± 0.2 |
| LSHMPDMALAKPWHRARD | 5.04 ± 0.076 |
| GHLYSISCVFNI | 8.633 ± 0.044 |
| NADPNCLSK | 0.508 ± 0.57 |
| FSVDMHRWLMTWRHQRDRRV | 2.75 ± 0.18 |
| EEVVVVWFIRDKDLALKLVV | inactive |
| RDVWVRGLACLVASSTMHSS | 0.999 ± 0.32 |
| TLAYMNGVA | -0.928 ± 0.63 |
| CEYYVHLRY | -0.702 ± 0.49 |

| Substance | amyloid nucleation score |
| --- | --- |
| VNSDYMGIGL | -0.272 ± 1.1 |
| IYCNNPRWSFLHSLKLEPLG | -0.476 ± 0.28 |
| SFIVRQGPTHKFVSECS | -0.887 ± 0.54 |
| MSLHPMRLHQWRPESIVLTE | 0.365 ± 0.66 |
| NTSHGFQSNPRGAYERILCV | -0.961 ± 0.63 |
| DCDVSVNSVYITVKSAICAV | 0.767 ± 0.66 |
| NSSYTVGHGPDT | inactive |
| YAFIILISCFLTDDSTIGVY | -0.24 ± 0.55 |
| NRETGANCARMPKVNVWEQQ | 0.865 ± 0.25 |
| NYWWYVPW | 0.527 ± 0.51 |
| EEWYHADVSCVHRKIPNATR | 0.644 ± 0.81 |
| SILTVKQRTYVNGGRLYSRY | 0.005 ± 0.49 |
| DAAEISGLCLYDFLTGDLEQ | 2.27 ± 0.12 |
| RCLWYKACMRPF | inactive |
| SAKHTWVISR | 0.098 ± 0.79 |
| GYSILKC | inactive |
| NNRWVRKVSDYRVSC | 0.243 ± 0.64 |
| IVYKGFLREN | inactive |
| RRNNNFLWIDLNLMLPCYDW | 7.75 ± 0.08 |
| RVVWWVVGFS | -0.297 ± 0.56 |
| AVNSNDTRDGRCGVIAI | 0.057 ± 0.31 |
| QSFNGS | -1.2 ± 0.54 |
| SLWTYRARTKGCHYVHSVLM | 0.164 ± 1.1 |
| RIIGTDLSRLWWIKFKVKRG | -0.091 ± 0.65 |
| RELQNLFPHCILWSIIMKPN | -1.49 ± 1.1 |
| CRKYKLRHRADDCSMYCTRL | 3.33 ± 0.14 |

| Substance | amyloid nucleation score |
| --- | --- |
| ALVVLFTCGCSGMLVYNAWS | 0.841 ± 0.13 |
| NVQALMN | 0.012 ± 0.74 |
| YRFRSLSM | -1.14 ± 0.4 |
| FGNRLNFDILTTFVIKRWCM | -0.342 ± 0.76 |
| VVRCRWQDTRTVSQGWVIP | 0.97 ± 0.33 |
| CRFLRA | -0.051 ± 0.79 |
| DDRCATSNIHLLLHPLCTYL | 0.754 ± 0.37 |
| TVFYIYMGQDDG | 5.12 ± 0.1 |
| GDGRVYMVIGSGRGRV | 0.506 ± 0.41 |
| ITDVFSMWIF | -0.73 ± 0.5 |
| IRMAISLFNFGFSNMFMLKE | -1.94 ± 1.1 |
| IFAHSPLYMCGYADVYVHPT | inactive |
| NYYCFQIRMLENNEEVFGIG | inactive |
| ILWCFRSVMA | -0.327 ± 0.28 |
| SNMASIFTPKRSFNSEVENQ | -1.31 ± 0.61 |
| LGPEYTWQI | 0.548 ± 0.42 |
| FSFRLYMEFLWGI | inactive |
| INWLKYLAFLILLDMFNSFG | 0.263 ± 0.64 |
| YGFVDSHRTH | 0.092 ± 0.61 |
| RILWK | inactive |
| IAVSMNEMGY | inactive |
| SSYRRLTQSTLRVDRHRLFY | 0.732 ± 0.4 |
| LCVSAVLKLVGNLWDDEREC | -0.091 ± 0.79 |
| LNRTRYIAISKVLNRFSVSR | -0.237 ± 0.64 |
| REVQYWARYLSVMQLCFVSS | 2.19 ± 0.13 |
| CTFKFMAVQFCG | 5.46 ± 0.073 |

| Substance | amyloid nucleation score |
| --- | --- |
| RRYHRR | 1.42 ± 0.38 |
| HTTGFPFRGLGDIDSLAEQF | -0.217 ± 0.79 |
| ALVLRATVVVGIVKPGHAAD | 0.523 ± 0.32 |
| DRRRK | 1.43 ± 0.23 |
| HCPVSVVTRHGLTVNDVRHY | -0.062 ± 0.46 |
| ILICKILKTRMKVSRDMVMK | inactive |
| GSKDFLV | -0.047 ± 1.1 |
| VYYTCYDE | 0.024 ± 0.4 |
| LCLVQLSDSCNQ | 7.917 ± 0.055 |
| DDHLCSFLRFFTNKRKRA | 4.67 ± 0.09 |
| RSILSCEGPDSLLEAFNEQI | 0.625 ± 0.64 |
| MISYYLMSIYS | 4.58 ± 0.065 |
| QLFTMDN | -0.459 ± 0.78 |
| RLWCLRSTNEMAVSCYRSWD | 4.47 ± 0.049 |
| LTACRVLRLLKCSQRE | 4.68 ± 0.075 |
| MGSGSIFT | 0.287 ± 0.45 |
| IILFEYCEF | -0.613 ± 1.1 |
| HVAWGHFLLIHIFHVNYGYL | -0.627 ± 1.1 |
| SCWMMFHPNPMQLKFSYCVE | -0.69 ± 0.33 |
| EVWYTGYVCLWMYIAWINID | inactive |
| MTSYAWMNTSSM | inactive |
| IIQRRK | -0.157 ± 0.27 |
| VFDIWFLGSDTSSCVNWTYR | 6.583 ± 0.048 |
| RSDVSLVYNLWALWWAR | 0.906 ± 0.52 |
| IRRVSAQVCINWSIEWKSTR | 1.07 ± 0.33 |
| FTLFVRHPGIVALERNFMVR | -0.062 ± 0.35 |

— the supplement of paper PMC12042874
